Reference: US20230357420A1 (VILLARIS THERAPEUTICS, published 2023)
Read-outs that look alike come from different tables or passages of the source.

Assays:
Neudesin = target: T1, Neudesin (human, UniProt Q9UMX5 32-172); test: Retrogenix cell microarray
T1 construct: whole, on cells; Secreted protein; the tether is not described; also called NENF; neudesin neurotrophic factor (on transfected cells)

Human CD122 [1] = target: T2, Human CD122 (human, UniProt P14784 27-551); test: flow cytometry (FACS) on huIL15Rβ-transfected CHO-K1 cells, anti-human IgG-FITC, GeoMFI
T2 construct: also called hCD122; IL2RB
T2 sequence: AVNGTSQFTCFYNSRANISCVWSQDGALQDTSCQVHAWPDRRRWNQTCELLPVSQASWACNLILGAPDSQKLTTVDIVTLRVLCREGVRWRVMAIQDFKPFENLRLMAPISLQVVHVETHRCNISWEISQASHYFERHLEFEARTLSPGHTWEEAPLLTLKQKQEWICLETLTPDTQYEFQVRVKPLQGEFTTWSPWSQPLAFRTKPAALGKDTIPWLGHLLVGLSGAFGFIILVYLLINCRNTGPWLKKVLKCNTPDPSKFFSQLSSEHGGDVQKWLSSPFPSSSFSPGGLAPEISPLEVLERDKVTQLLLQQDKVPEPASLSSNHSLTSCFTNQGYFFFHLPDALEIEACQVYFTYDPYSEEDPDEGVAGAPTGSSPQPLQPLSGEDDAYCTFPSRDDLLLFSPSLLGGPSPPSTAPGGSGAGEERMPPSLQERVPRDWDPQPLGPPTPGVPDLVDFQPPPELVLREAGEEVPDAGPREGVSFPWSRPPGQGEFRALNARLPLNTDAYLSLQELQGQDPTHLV
Procedure: (§1) Purified IgGs were tested in FACs for binding to human and rhesus CD122 expressed on CHO-K1 stable cell lines and CHO-K1 wild-type cells. The IgG samples were titrated in three-fold serial dilutions starting at 500 nM to […]. Binding of IgGs was detected with a mouse anti-human IgG conjugated to FITC. Results were analyzed by examining the Mean Fluorescence Intensity (MFI) of 10000 cells per sample in the BL-1 channel detector of a flow cytometer (AttuneTM NxT Acoustic Focusing Cytometer, Invitrogen/ ThermoFisher Scientific).

Human CD122 [2] = target: T2, Human CD122; test: as above; remark: listed apart in the source
Procedure: as §1

Human CD122 [3] = target: T2, Human CD122; test: as above; remark: listed apart in the source
Procedure: as §1

Rhesus CD122 [4] = target: T3, Rhesus CD122 (rhesus monkey, UniProt Q38J85 27-551 (cynomolgus entry)); test: flow cytometry (FACS) on rhIL15Rβ-transfected CHO-K1 cells, anti-human IgG-FITC, GeoMFI
T3 construct: also called rhCD122 on cells
T3 sequence: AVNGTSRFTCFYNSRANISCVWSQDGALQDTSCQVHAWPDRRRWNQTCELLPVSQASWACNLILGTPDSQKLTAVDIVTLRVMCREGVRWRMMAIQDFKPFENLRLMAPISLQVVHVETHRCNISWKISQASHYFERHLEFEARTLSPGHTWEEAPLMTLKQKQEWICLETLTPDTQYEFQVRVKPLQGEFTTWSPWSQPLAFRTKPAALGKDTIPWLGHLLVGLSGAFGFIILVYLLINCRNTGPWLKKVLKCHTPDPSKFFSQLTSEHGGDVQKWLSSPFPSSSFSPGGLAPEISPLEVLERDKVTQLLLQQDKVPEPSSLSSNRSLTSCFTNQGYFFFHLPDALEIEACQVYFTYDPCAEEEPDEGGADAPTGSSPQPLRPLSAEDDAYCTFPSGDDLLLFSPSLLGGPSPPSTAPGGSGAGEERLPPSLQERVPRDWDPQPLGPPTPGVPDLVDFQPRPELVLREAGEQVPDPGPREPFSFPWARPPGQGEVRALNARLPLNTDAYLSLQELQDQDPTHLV
Procedure: as §1

Human CD122 [5] = target: T2, Human CD122; test: flow cytometry (FACS) on huIL15Rβ-transfected CHO-K1 cells, anti-human IgG-FITC, GeoMFI; remark: listed apart in the source
Procedure: as §1

Rhesus CD122 [6] = target: T3, Rhesus CD122; test: flow cytometry (FACS) on rhIL15Rβ-transfected CHO-K1 cells, anti-human IgG-FITC, GeoMFI; remark: listed apart in the source
Procedure: as §1

Human CD122 [7] = target: T2, Human CD122; test: flow cytometry (FACS) on huIL15Rβ-transfected CHO-K1 cells, anti-human IgG-FITC, GeoMFI; remark: listed apart in the source
Procedure: as §1

Human CD122 [8] = target: T2, Human CD122; test: as above; remark: listed apart in the source
Procedure: as §1

Rhesus CD122 [9] = target: T3, Rhesus CD122; test: flow cytometry (FACS) on rhIL15Rβ-transfected CHO-K1 cells, anti-human IgG-FITC, GeoMFI; remark: listed apart in the source
Procedure: as §1

[10] = target: T4, Human CD122 human Fc tagged recombinant protein (human, UniProt P14784 27-240); test: Alphascreen epitope competition: unlabelled VillMAb-1 at log10 -1.9 to 2 nM against VillMab-1 binding to human CD122-Fc (self-competition); CPS (crosstalk-corrected)
T4 construct: also called human CD122-Fc; not shown: human Fc tag
T4 sequence: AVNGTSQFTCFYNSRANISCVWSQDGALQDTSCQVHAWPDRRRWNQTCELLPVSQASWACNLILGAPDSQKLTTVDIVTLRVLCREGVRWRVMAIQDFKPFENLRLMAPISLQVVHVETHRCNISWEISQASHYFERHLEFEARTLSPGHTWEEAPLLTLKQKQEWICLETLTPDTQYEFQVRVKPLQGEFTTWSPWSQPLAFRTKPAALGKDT

T1 sequence (Q9UMX5 32-172): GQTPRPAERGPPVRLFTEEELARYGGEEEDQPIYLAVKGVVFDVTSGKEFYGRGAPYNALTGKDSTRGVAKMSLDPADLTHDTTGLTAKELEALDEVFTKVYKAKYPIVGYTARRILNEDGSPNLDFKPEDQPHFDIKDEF

B1: IgG1-MIKβ1 (humanized) (antibody, V domains shown)
VH: EVQLLESGGGLVQPGGSLRLSCAASGFSVTSYGVHWIRQAPGKGLEWLGVIWSGGSTDYNAAFISRLTISKDNSKNTVYFQMNSLQAEDTAIYYCARAGDYNYDGFAYWGQGTLVTVSS
VL: DIVLTQSPSSLSASVGDRVTITCSGSSSVSFMYWYQQRPGKAPRLLIYDTSNLASGVPSRFSGSGSGTSYTFTISSLQPEDIATYYCQQWSTYPLTFGQGTKVEVK
notes: also called VillMab-1; VillMAB-1
binding result (Neudesin): no binding
EC50 (read off the curve) (Human CD122 [1]): ~0.9 nM
EC50 (read off the curve) (Human CD122 [2]): ~0.9 nM
EC50 (read off the curve) (Human CD122 [3]): ~0.9 nM
EC50 (read off the curve) (Rhesus CD122 [4]): ~0.6 nM
EC50 (read off the curve) (Human CD122 [5]): ~0.9 nM
EC50 (read off the curve) (Rhesus CD122 [6]): ~0.6 nM
EC50 (read off the curve) (Human CD122 [7]): ~0.9 nM
EC50 (read off the curve) (Human CD122 [8]): ~0.9 nM
EC50 (read off the curve) (Rhesus CD122 [9]): ~0.6 nM
IC50 (read off the curve) [10]: ~2 nM
